We go through 2 substances from US20150329642A1.

Assay [1] addresses cMetECDHis (human) (UniProt P08581). The assay can be described thus: cross-block ELISA; competitor 069. In general terms: An ELISA detects its analyte on a solid surface through an enzyme-linked reagent.
Assay [2] has the same target. The assay can be described thus: cross-block ELISA; competitor 045.
Assay [3] has the same target. Briefly: cross-block ELISA; competitor 008.
Assay [4] has the same target. The assay can be described thus: cross-block ELISA; competitor 058.
Assay [5] shares this target. The assay can be described thus: cross-block ELISA; competitor 024.
For assay [6] the target is unchanged. Briefly: cross-block ELISA; competitor 006.
The target is the same in assay [7]. Briefly: cross-block ELISA; competitor 022.
The target is the same in assay [8]. The assay can be described thus: cross-block ELISA; competitor 035.
Assay [9] shares this target. The assay can be described thus: cross-block ELISA; competitor G11-HZ.
Assay [10] has the same target. The assay can be described thus: cross-block ELISA; competitor 181.
Assay [11] shares this target. The assay can be described thus: cross-block ELISA; competitor 5D5.
The target in assay [12] is recombinant human c-Met extracellular domain (R&D systems) (human) (UniProt P08581). The assay can be described thus: competition ELISA, residual Europium-HGF signal at 615 nm at the lower plateau of the fit; sheet prints no competing mAb ~66000, no HGF-Europium ~600; upper panel.
The target is the same in assay [13]. Briefly: competition ELISA on coated recombinant c-Met extracellular domain; blocked ligand Europium-conjugated HGF; column headed EC50 on the sheet, called IC50 in paragraph 270; upper panel.
Assay [14] addresses cMetECDHis (human) (UniProt P08581). The assay can be described thus: cross-block ELISA; competitor 101.
The target is the same in assay [15]. Briefly: cross-block ELISA; competitor 062.
Assay [16] shares this target. The assay can be described thus: cross-block ELISA; competitor 005.
For assay [17] the target is unchanged. The assay can be described thus: BLI (Octet); antibody captured, cMetECDHis in solution.
Assay [18] shares this target. Briefly: cross-block ELISA; competitor 068.
Assay [19] shares this target. The assay can be described thus: cross-block ELISA; competitor 098.
The next assay addresses cMetSEMA-567His8 (human) (UniProt P08581). Briefly: TR-FRET; displacement of AlexaFluor-647-HGF from cMetSEMA-567His8. In general terms: TR-FRET usually uses a lanthanide donor and a delayed reading to cut background.
The target of assay [20] is cMetECDHis (human) (UniProt P08581). The assay can be described thus: cross-block ELISA; competitor 064.
The target in assay [21] is human c-Met, membrane-bound on cells (human) (UniProt P08581). Briefly: flow cytometry on A431 cells (PE goat anti-human IgG); top panel. Background: In flow cytometry, cells or beads pass a laser one at a time.

By IC50 is commonly meant the concentration at which inhibition is half-maximal. As usually defined, the Kd is the concentration at which binding is half-saturated. The term koff denotes the first-order rate constant of dissociation. High values mean fast dissociation, low ones slow dissociation. Broadly, the kon is a measure of how fast the partners come together. Low values mean slower complex formation, high ones faster complex formation. Usually % inhibition stands for the change of the read-out against control, counted positive when it falls. Read a high % inhibition as strong suppression. As usually defined, the EC50 is the concentration needed to bring the measured effect to its halfway point. Low values mean higher potency in that assay, high ones lower potency in that assay. IgG1-5D5 (antibody): the residual binding, % of no competitor with cMetECDHis (human) [1] turned out to be 99.6%; in the assay with cMetECDHis (human) [2], 83.9%; with cMetECDHis (human) [3], 90.2%; with cMetECDHis (human) [4], 6.6%; in the assay with cMetECDHis (human) [5], 94.2%; in the assay with cMetECDHis (human) [6], 58.8%. The residual binding, % of no competitor amounted to 12.4% in the assay with cMetECDHis (human) [7]; 98.1% with cMetECDHis (human) [8]; 97.3% with cMetECDHis (human) [9]; 103% with cMetECDHis (human) [10]; 4.1% in the assay with cMetECDHis (human) [11]; 97.9% with cMetECDHis (human) [14]. Further, the residual binding, % of no competitor with cMetECDHis (human) [15] is 97.6%; with cMetECDHis (human) [16], 42.3%; with cMetECDHis (human) [18], 97.8%; with cMetECDHis (human) [19], 97.6%; with cMetECDHis (human) [20], 97.1%. Besides, in assay [12], the Bottom was 6350 RFU. The IC50 in [13] stood at 0.0244 µg/mL; with cMetSEMA-567His8 (human), 0.2 µg/mL. Besides, in the assay with cMetECDHis (human) [17], the equilibrium dissociation constant (Kd) was 5.86 nM. In the assay with cMetECDHis (human) [17], the koff stood at 0.00125 s⁻¹. In the assay with cMetECDHis (human) [17], this substance returned a kon of 214000 M⁻¹ s⁻¹. In the assay with cMetSEMA-567His8 (human), this substance came in with a % inhibition of 95%. For the same substance, the EC50 in assay [21] amounted to 0.531 nM.
The substance IgG4-5D5 (antibody) registered an EC50 in assay [21] of 0.966 nM.
